Source: patent US7026443
Like-named read-outs stand apart in the source and are kept apart here.

Assays:
HLA-A*0201 (human) [1] = experiment: competition with a 125I-labeled standard peptide for purified HLA-A*0201, gel filtration; ratio to the standard peptide
HLA-A*0301 (human) [2] = experiment: competition with a 125I-labelled standard peptide for purified HLA-A*0301, gel filtration; value relative to the standard peptide
HLA-A*1101 (human) [3] = experiment: competition with 125I-radiolabeled standard probe peptide for purified HLA-A*1101, gel filtration
HLA-A*0301 (human) [4] = experiment: competition against a 125I-labeled standard probe peptide for purified HLA-A*0301, gel filtration; relative binding
HLA-A*0101 (human) [5] = target: HLA-A*0101 (human)
HLA-A*1101 (human) [6] = target: HLA-A*1101 (human)
HLA-A*0101 (human) [7] = target: HLA-A*0101 (human); remark: listed apart in the source
HLA-A*0301 (human) [8] = experiment: competition with 125I-labelled standard probe peptide for purified HLA-A*0301, gel filtration
HLA-A*0301 (human) [9] = experiment: competition with 125I-labelled probe peptide for purified HLA, gel filtration; conditions: scale: ratio
HLA-A*1101 (human) [10] = experiment: as above; conditions: scale: ratio
HLA-A*0301 (human) [11] = experiment: competition with 125I-labeled standard peptide for purified HLA-A*0301, gel filtration
HLA-A*1101 (human) [12] = experiment: competition with 125I-labeled standard peptide for purified HLA-A*1101, gel filtration; conditions: scale: ratio
HLA-A*1101 (human) [13] = experiment: competition with 125I-labelled standard probe peptide for purified HLA-A*1101, gel filtration
HLA-A*0301 (human) [14] = experiment: competition of unlabeled peptide against 125I-labeled standard probe peptide for purified HLA-A*0301, gel filtration
HLA-A*0201 (human) [15] = experiment: competition with 125I-labelled standard peptide on purified HLA, gel filtration; conditions: remark: other sources report otherwise
HLA-A*0203 (human) = experiment: as above; conditions: remark: other sources report otherwise
HLA-A*0206 (human) = experiment: as above; conditions: remark: other sources report otherwise
[16] = target: purified HLA-A*0201 molecules (human)
HLA-A*0301 (human) [17] = target: HLA-A*0301 (human)
HLA-A*1101 (human) [18] = target: HLA-A*1101 (human); remark: listed apart in the source
HLA-A*0301 (human) [19] = target: HLA-A*0301 (human); remark: listed apart in the source
[20] = target: HLA-A*0201 (purified HLA class I molecule) (human); experiment: competition assay: unlabeled peptide inhibits binding of a 125I-labeled standard probe peptide to purified HLA-A*0201, gel filtration read-out
HLA-A*0301 (human) [21] = experiment: competition with 125I-labelled standard peptide for purified HLA-A*0301, gel filtration
HLA-A*1101 (human) [22] = experiment: inhibition of 125I-labeled standard peptide binding to purified HLA-A*1101, gel filtration

## LLTTNIHPA (modifications not checked) [HPV18 E1 peptide … (position 570, 9 amino acids)]
HLA-A*0201 (human) [1]
  relative binding ratio (IC50 of standard peptide / IC50 of test peptide): 0.18

## GVLILALLR (modifications not checked) [HPV45 E1 peptide … (position 265, 9 amino acids)]
HLA-A*0301 (human) [2]
  relative binding ratio (IC50 of standard peptide / IC50 of test peptide): 0.0058

## WTYFDTYMR (modifications not checked) [HPV18 E1 peptide … (position 536, 9 amino acids)]
HLA-A*1101 (human) [3]
  relative binding ratio (IC50 of standard peptide / IC50 of test peptide): 0.012
HLA-A*0301 (human) [4]
  binding affinity ratio (IC50 of the standard peptide / IC50 of the test peptide): 0.0005

## KISEYRHYCY (modifications not checked) [… (HPV16 E6, position 79, 10 amino acids)]
HLA-A*0101 (human) [5]
  relative binding ratio (IC50 of standard peptide / IC50 of test peptide): 0.009
HLA-A*1101 (human) [6]
  binding affinity ratio (IC50 of standard peptide / IC50 of test peptide) (ratio to standard peptide): 0.0038

## ISEYRHYCY (modifications not checked) [HPV16 E6 80 …]
HLA-A*0101 (human) [7]; remark: other sources report otherwise
  binding affinity ratio (IC50 of standard peptide / IC50 of test peptide): 0.31

## EGTGCNGWF (modifications not checked) [HPV16 E1 peptide … (position 11, 9 amino acids)]
HLA-A*0301 (human) [8]
  binding affinity ratio relative to the standard peptide (IC50 standard / IC50 test): 0.0008

## WPYLESRITV (modifications not checked) [HPV18 E1 583 peptide …]
HLA-B*0702 (human)
  binding affinity ratio (IC50 of standard peptide / IC50 of test peptide): 0.0067
HLA-B*3501 (human)
  binding affinity ratio (IC50 of standard peptide / IC50 of test peptide): 0.0066
HLA-B*5101 (human)
  binding affinity ratio (IC50 of standard peptide / IC50 of test peptide): 0.055
HLA-B*5301 (human)
  binding affinity ratio (IC50 of standard peptide / IC50 of test peptide): 0.014
HLA-B*5401 (human)
  binding affinity ratio (IC50 of standard peptide / IC50 of test peptide): 0.024

## IHDIILECVY (modifications not checked) [… (HPV16 E6, position 30, 10 amino acids)]
HLA-A*0101 (human) [5]
  relative binding ratio (IC50 of standard peptide / IC50 of test peptide): 0.028

## VVLLLVRYK (modifications not checked) [HPV16 E1 peptide … (position 274, 9 amino acids)]
HLA-A*0301 (human) [9]
  binding affinity ratio (relative to standard peptide): 1
HLA-A*1101 (human) [10]
  binding affinity ratio (relative to standard peptide): 0.36
HLA-A*0301 (human) [11]
  relative binding ratio (IC50 of standard peptide / IC50 of test peptide): 1
HLA-A*1101 (human) [12]
  relative binding ratio (A*1101): 0.36

## LCPEEKQRH (modifications not checked) [HPV31 E6 peptide … (position 110, 9 amino acids)]
HLA-A*1101 (human) [13]
  relative binding ratio (IC50 of standard peptide / IC50 of test peptide) (ratio to standard peptide): 0.0001
HLA-A*0301 (human) [14]
  relative binding ratio (IC50 of standard peptide / IC50 of test peptide) (ratio to standard peptide): 0.0003

## YMLDLQPETT (modifications not checked) [HPV16 E7 11 …]
HLA-A*0201 (human) [15]
  binding affinity ratio (IC50 of standard peptide / IC50 of test peptide): 0.15
HLA-A*0203 (human)
  binding affinity ratio (IC50 of standard peptide / IC50 of test peptide): 0.0001
HLA-A*0206 (human)
  binding affinity ratio (IC50 of standard peptide / IC50 of test peptide): 1.7

## QLKCPPLLI (modifications not checked) [HPV31 E1 peptide … (position 536, 9 amino acids)]
[16]
  relative binding ratio (IC50 of standard peptide / IC50 of test peptide): 0.0049

## CATMCRHYK (modifications not checked) [HPV16 E1 peptide … (position 405, 9 amino acids)]
HLA-A*0301 (human) [17]
  binding affinity ratio (IC50 of standard peptide / IC50 of test peptide): 0.0012
HLA-A*1101 (human) [18]
  binding affinity ratio (IC50 of standard peptide / IC50 of test peptide): 0.0098
HLA-A*3101 (human)
  binding affinity ratio (IC50 of standard peptide / IC50 of test peptide): 0.0077
HLA-A*3301 (human)
  binding affinity ratio (IC50 of standard peptide / IC50 of test peptide): 0.01
HLA-A*6801 (human)
  binding affinity ratio (IC50 of standard peptide / IC50 of test peptide): 0.0056
HLA-A*0301 (human) [19]
  relative binding ratio (IC50 of standard peptide / IC50 of test peptide) (ratio to standard peptide): 0.0012

## EGTGCNGWFY (modifications not checked) [HPV16 E1 peptide … (position 11, 10 amino acids)]
HLA-A*0301 (human) [8]
  binding affinity ratio relative to the standard peptide (IC50 standard / IC50 test): 0.0005

## LLITSNINA (modifications not checked) [HPV31 E1 peptide … (position 542, 9 amino acids)]
[20]
  relative binding ratio (IC50 of standard peptide / IC50 of test peptide): 0.0022

## GDTPEWIQR (modifications not checked) [HPV45 E1 peptide … (position 327, 9 amino acids)]
HLA-A*0301 (human) [2]
  relative binding ratio (IC50 of standard peptide / IC50 of test peptide): 0.0008

## KISEYRHYCY (modifications not checked) [HPV16 E6 79 …]
HLA-A*0101 (human) [7]
  binding affinity ratio (IC50 of standard peptide / IC50 of test peptide): 0.009

## KAAMLAKFK (modifications not checked) [HPV16 E1 204 …]
HLA-A*0301 (human) [21]
  binding affinity ratio (IC50 of standard peptide / IC50 of test peptide) (ratio to standard peptide): 0.11
HLA-A*1101 (human) [22]
  relative binding ratio (IC50 of standard peptide / IC50 of test peptide): 0.18
